According to the supplement of paper PMC7125110:
± gives the standard error. For part of these data: Fewer inactive variants are shown than the library holds.

B1: glmS ribozyme (parent)
chain: AUAAAAGCGCCAGAACUACAGAAAUGUAGUUGACGAGGAGGAGGUUUAUCGAAUUUUCGGCGGAUGCCUCCAAA

How the values were obtained:
Conditions in all cases: with glucosamine-6-phosphate
glucosamine-6-phosphate [1] = variants of: B1; assay: kcat; higher = faster cleavage; RNA array
In short: (§1)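 Over ~14 h at 37 °C, tiles were imaged as glucosamine-6-phosphate (40 μM to 10 mM) in HEPES/KCl/Mg(OAc)2 buffer flowed across sequenced MiSeq chips. The chips carried barcoded ribozyme variants transcribed in situ by E. coli RNA polymerase and tracked with a hybridised Cy3 probe. After normalisation to baseline and to non-cleaving reference variants, one- or two-exponential decay fits of per-tile medians gave kobs. kcat and KM followed from weighted Michaelis–Menten fits across concentrations.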

glucosamine-6-phosphate [2] = variants of: B1; assay: KM; higher = weaker cofactor use; RNA array
In short: as §1

glucosamine-6-phosphate [3] = variants of: B1; assay: self-cleavage kobs at 640 uM GlcN6P; higher = faster cleavage; RNA array
In short: as §1

glucosamine-6-phosphate [4] = variants of: B1; assay: self-cleavage kobs at 2500 uM GlcN6P; higher = faster cleavage; RNA array
In short: as §1

glucosamine-6-phosphate [5] = variants of: B1; assay: self-cleavage kobs at 10000 uM GlcN6P; higher = faster cleavage; RNA array
In short: as §1

glucosamine-6-phosphate [6] = variants of: B1; assay: self-cleavage kobs at 160 uM GlcN6P; higher = faster cleavage; RNA array
In short: as §1

glucosamine-6-phosphate [7] = variants of: B1; assay: self-cleavage kobs at 40 uM GlcN6P; higher = faster cleavage; RNA array
In short: as §1

Row | Variant | kcat (glucosamine-6-phosphate [1]) [s⁻¹] | KM (glucosamine-6-phosphate [2]) [µM] | self-cleavage kobs at 640 uM GlcN6P (glucosamine-6-phosphate [3]) [s⁻¹] | self-cleavage kobs at 2500 uM GlcN6P (glucosamine-6-phosphate [4]) [s⁻¹] | self-cleavage kobs at 10000 uM GlcN6P (glucosamine-6-phosphate [5]) [s⁻¹] | self-cleavage kobs at 160 uM GlcN6P (glucosamine-6-phosphate [6]) [s⁻¹] | self-cleavage kobs at 40 uM GlcN6P (glucosamine-6-phosphate [7]) [s⁻¹]
1 | A42C C67A | 0.000122 ± 1.6e-05 | 1160 ± 560 | 5.06e-05 ± 1.6e-05 | 5.66e-05 ± 2.8e-05 | 0.000114 ± 1.7e-05 | – | –
2 | U65A C70G | 7.88e-05 ± 4.1e-06 | 66.3 ± 25 | 7.89e-05 ± 1e-05 | 7.95e-05 ± 1e-05 | 7.32e-05 ± 7.6e-06 | 5.95e-05 ± 1.2e-05 | –
3 | G44C A52G | < 1e-05 | 279 ± 110 | < 1e-05 | – | – | < 1e-05 | < 1e-05
4 | G13C G41A | 5.76e-05 ± 4.7e-06 | – | < 1e-05 | – | – | – | < 1e-05
5 | G38C C58G C70U | < 1e-05 | – | – | – | – | – | –
6 | U55G U65A | 0.00461 ± 0.00094 | 3100 ± 880 | 0.000695 ± 0.00011 | 0.00174 ± 0.00025 | 0.00388 ± 0.00043 | 0.000296 ± 4.5e-05 | 6.02e-05 ± 7.6e-06
7 | C11U U55C | 0.00286 ± 0.00063 | 6220 ± 1800 | 0.00029 ± 4.1e-05 | 0.000776 ± 0.0001 | 0.00181 ± 0.0003 | 6.7e-05 ± 1.2e-05 | –
8 | A48U A53U | 0.000308 ± 4.1e-05 | 1960 ± 750 | 0.000104 ± 3.1e-05 | 0.000161 ± 2e-05 | 0.000265 ± 2.8e-05 | – | –
9 | A39C A42G | 0.00493 ± 0.0008 | 1490 ± 310 | 0.00152 ± 0.00029 | 0.00282 ± 0.00046 | 0.0047 ± 0.00074 | 0.000376 ± 7.6e-05 | 0.000141 ± 1.4e-05
10 | C16U A39U | 0.0586 ± 0.022 | 9390 ± 4200 | 0.00392 ± 0.00055 | 0.0111 ± 0.0017 | 0.034 ± 0.0081 | 0.00114 ± 0.00038 | –
11 | A12C U55C | 0.00941 ± 0.0032 | 2710 ± 1200 | 0.00235 ± 0.00034 | 0.00417 ± 0.00083 | 0.00731 ± 0.0019 | 0.000402 ± 8.8e-05 | 0.000147 ± 2.6e-05
12 | A39U U57G | 2.55e-05 ± 5.3e-06 | – | – | 3.12e-05 ± 1.3e-05 | 2.2e-05 ± 9.3e-06 | – | –
13 | G13A U54A | 0.000832 ± 0.00029 | – | 0.000147 ± 3.8e-05 | 0.000299 ± 5.6e-05 | 0.000709 ± 0.0001 | 5.51e-05 ± 1.6e-05 | 5.62e-05 ± 2.4e-05
14 | G38C G66U | < 1e-05 | – | – | – | < 1e-05 | < 1e-05 | –
15 | G37C A53U | 2.09e-05 ± 2.3e-06 | – | – | 2.18e-05 ± 9.8e-06 | 1.92e-05 ± 8.5e-06 | – | < 1e-05
16 | A15U G40C | 0.000282 ± 2.6e-05 | 1070 ± 230 | 0.00011 ± 1.4e-05 | 0.000162 ± 3.3e-05 | 0.000269 ± 3e-05 | 3.7e-05 ± 1.5e-05 | –

Row | Variant | kcat (glucosamine-6-phosphate [1]) [s⁻¹] | KM (glucosamine-6-phosphate [2]) [µM] | self-cleavage kobs at 640 uM GlcN6P (glucosamine-6-phosphate [3]) [s⁻¹] | self-cleavage kobs at 2500 uM GlcN6P (glucosamine-6-phosphate [4]) [s⁻¹] | self-cleavage kobs at 10000 uM GlcN6P (glucosamine-6-phosphate [5]) [s⁻¹] | self-cleavage kobs at 160 uM GlcN6P (glucosamine-6-phosphate [6]) [s⁻¹] | self-cleavage kobs at 40 uM GlcN6P (glucosamine-6-phosphate [7]) [s⁻¹]
17 | U31A G37A | 0.0007 ± 0.00026 | – | 0.000245 ± 3.6e-05 | 0.000309 ± 7.3e-05 | 0.000939 ± 0.00018 | 6.91e-05 ± 1.3e-05 | –
18 | A14U U54A | 0.00906 ± 0.0023 | 1560 ± 560 | 0.00228 ± 0.00033 | 0.00565 ± 0.00092 | 0.00909 ± 0.002 | 0.000834 ± 0.00014 | 0.000324 ± 5.9e-05
19 | A36G C67A | < 1e-05 | – | – | – | – | – | –
20 | A14C U57A U69A | 3.51e-05 ± 1.3e-05 | – | 4.77e-05 ± 2.2e-05 | – | – | – | –
21 | U54G U69G | 7.3e-05 ± 1.5e-05 | – | 9.61e-05 ± 1.4e-05 | 8.77e-05 ± 1.5e-05 | 4.86e-05 ± 1.1e-05 | 8.46e-05 ± 2.2e-05 | 3.86e-05 ± 1.3e-05
22 | A12C A14U | 0.000416 ± 3.2e-05 | 2270 ± 350 | 9.07e-05 ± 1e-05 | 0.000202 ± 2.4e-05 | 0.000348 ± 2.9e-05 | 3.61e-05 ± 9.3e-06 | –
23 | A52U C71A | 0.000156 ± 2.6e-05 | – | 5.96e-05 ± 1.3e-05 | – | 0.000144 ± 1.6e-05 | – | < 1e-05
24 | C11A G44U G59U | 0.000238 ± 5.3e-06 | 1330 ± 77 | 7.85e-05 ± 2.2e-05 | 0.00015 ± 4.7e-05 | 0.000212 ± 4e-05 | – | –
25 | A6G A14G | 0.00132 ± 0.00026 | 3740 ± 1200 | 0.000162 ± 4.1e-05 | 0.000514 ± 7.9e-05 | 0.000992 ± 0.00016 | 7.41e-05 ± 1.7e-05 | –
26 | G44A C67G | 0.000462 ± 7e-05 | 1700 ± 580 | 0.000128 ± 1.5e-05 | 0.000355 ± 3.8e-05 | 0.000371 ± 3e-05 | 2.41e-05 ± 1e-05 | –
27 | A15C U47A | 0.00412 ± 0.0012 | 2080 ± 870 | 0.000773 ± 0.00011 | 0.00226 ± 0.00034 | 0.00367 ± 0.00044 | 0.000266 ± 5.3e-05 | 0.000116 ± 1.4e-05
28 | C16G U30G | 0.000352 ± 3e-05 | 4110 ± 700 | 4.35e-05 ± 1.3e-05 | 0.000146 ± 2.8e-05 | 0.000246 ± 3.2e-05 | – | –
29 | G32A C58G | 0.000211 ± 4.8e-05 | 6460 ± 3200 | – | 5.76e-05 ± 1.7e-05 | 0.000129 ± 1.7e-05 | – | –
30 | U55C U69A | 1.74e-05 ± 6.8e-06 | – | – | – | – | – | –
31 | U49G U65A | 2.22e-05 ± 4.5e-06 | – | – | – | – | < 1e-05 | –
